Assay results taken from paper doi:10.1101/2022.05.04.490172.

Target: T1, BRN2 DNA-binding domain (BRN2-DBD) (Homo sapiens, UniProt P20265 264-415)
T1 sequence: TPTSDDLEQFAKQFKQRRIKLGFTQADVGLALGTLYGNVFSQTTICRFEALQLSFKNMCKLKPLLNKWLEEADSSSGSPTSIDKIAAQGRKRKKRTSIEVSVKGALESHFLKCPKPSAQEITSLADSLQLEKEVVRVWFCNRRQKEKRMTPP
Assay: X-ray crystallography

B1: MORE DNA (dsDNA)
DNA 1: GTATGCAAATAAG
DNA 2: CTTATTTGCATAC
binding result: binds
